The supplement of paper PMC9112550, “Optimization of the antimicrobial peptide Bac7 by deep mutational scanning” (BMC Biology, 2022)

What follows are sequences tested on Escherichia coli TOP10 (assay: shrunken log2 fold change of peptide-encoding DNA abundance (4.5 h post-induction vs induction); higher = less antimicrobial activity (less host growth inhibition)). Conditions: time post-induction: 4.5 h; library: site-saturation at positions 5, 18, 19, 20.
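Note: peptides expressed intracellularly from a pBAD plasmid library in pooled LB shake-flask culture, induced with 0.3% L-arabinose, DNA abundance read by NGS, three biological replicates, DESeq2 with apeglm shrinkage.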

Sequence | shrunken log2 fold change
RRIRFRPPRLPRPRPRPIILPRP | -1.74
RRIRFRPPRLPRPRPRPIIMPRP | -0.799
RRIRFRPPRLPRPRPRPIIRPRP | -0.014
RRIRFRPPRLPRPRPRPIKRPRP | 0.988
RRIRFRPPRLPRPRPRPILQPRP | -0.0746
RRIRFRPPRLPRPRPRPILYPRP | -0.7
RRIRFRPPRLPRPRPRPINHPRP | -0.511
RRIRFRPPRLPRPRPRPINWPRP | -0.113
RRIRFRPPRLPRPRPRPINYPRP | -0.0562
RRIRFRPPRLPRPRPRPIPIPRP | -0.648
RRIRFRPPRLPRPRPRPIPMPRP | -0.428
RRIRFRPPRLPRPRPRPIPRPRP | 0.365
RRIRFRPPRLPRPRPRPIPSPRP | -0.0572
RRIRFRPPRLPRPRPRPIRNPRP | -0.0537
RRIRFRPPRLPRPRPRPISCPRP | -0.038
RRIRFRPPRLPRPRPRPISNPRP | -0.48
RRIRFRPPRLPRPRPRPITYPRP | -0.472
RRIRFRPPRLPRPRPRPIVFPRP | -0.0906
RRIRFRPPRLPRPRPRPIVQPRP | 0.00873
RRIRFRPPRLPRPRPRPIVWPRP | 0.0539
RRIRFRPPRLPRPRPRPIWIPRP | -0.234
RRIRFRPPRLPRPRPRPIWSPRP | 0.0199
RRIRFRPPRLPRPRPRPKACPRP | -0.174
RRIRFRPPRLPRPRPRPKAMPRP | 0.23
RRIRFRPPRLPRPRPRPKCWPRP | 0.267

Sequence | shrunken log2 fold change
RRIRFRPPRLPRPRPRPKEYPRP | -0.468
RRIRFRPPRLPRPRPRPKFGPRP | 0.039
RRIRFRPPRLPRPRPRPKGFPRP | 0.21
RRIRFRPPRLPRPRPRPKHLPRP | -0.0736
RRIRFRPPRLPRPRPRPKHTPRP | -0.0698
RRIRFRPPRLPRPRPRPKLDPRP | 0.0288
RRIRFRPPRLPRPRPRPKLVPRP | 0.147
RRIRFRPPRLPRPRPRPKMDPRP | -0.0752
RRIRFRPPRLPRPRPRPKMHPRP | 0.0482
RRIRFRPPRLPRPRPRPKNAPRP | -0.0814
RRIRFRPPRLPRPRPRPKPIPRP | 0.0634
RRIRFRPPRLPRPRPRPKPNPRP | 0.545
RRIRFRPPRLPRPRPRPKPYPRP | -0.109
RRIRFRPPRLPRPRPRPKQDPRP | 0.21
RRIRFRPPRLPRPRPRPKRKPRP | 0.425
RRIRFRPPRLPRPRPRPKRQPRP | 0.401
RRIRFRPPRLPRPRPRPKSAPRP | -0.00592
RRIRFRPPRLPRPRPRPKSWPRP | 0.199
RRIRFRPPRLPRPRPRPKTLPRP | -0.145
RRIRFRPPRLPRPRPRPKTVPRP | -0.117
RRIRFRPPRLPRPRPRPKTYPRP | -0.578
RRIRFRPPRLPRPRPRPKVEPRP | 0.114
RRIRFRPPRLPRPRPRPKVTPRP | -0.2
RRIRFRPPRLPRPRPRPKVWPRP | -0.249
RRIRFRPPRLPRPRPRPKWIPRP | -0.699

Sequence | shrunken log2 fold change
RRIRFRPPRLPRPRPRPKYEPRP | -0.063
RRIRFRPPRLPRPRPRPKYMPRP | -0.836
RRIRFRPPRLPRPRPRPKYRPRP | 0.225
RRIRFRPPRLPRPRPRPLARPRP | -0.0473
RRIRFRPPRLPRPRPRPLCKPRP | 0.0214
RRIRFRPPRLPRPRPRPLDYPRP | -0.0121
RRIRFRPPRLPRPRPRPLEAPRP | 0.0974
RRIRFRPPRLPRPRPRPLFNPRP | -0.605
RRIRFRPPRLPRPRPRPLHQPRP | -0.37
RRIRFRPPRLPRPRPRPLIVPRP | -0.473
RRIRFRPPRLPRPRPRPLLIPRP | -0.385
RRIRFRPPRLPRPRPRPLLLPRP | -0.443
RRIRFRPPRLPRPRPRPLMPPRP | -0.00679
RRIRFRPPRLPRPRPRPLNDPRP | -0.839
RRIRFRPPRLPRPRPRPLPGPRP | 0.403
RRIRFRPPRLPRPRPRPLQDPRP | 0.118
RRIRFRPPRLPRPRPRPLQEPRP | -0.203
RRIRFRPPRLPRPRPRPLQFPRP | 0.0763
RRIRFRPPRLPRPRPRPLRDPRP | 0.717
RRIRFRPPRLPRPRPRPLSDPRP | 0.207
RRIRFRPPRLPRPRPRPLSWPRP | 0.245
RRIRFRPPRLPRPRPRPLWRPRP | 0.32
RRIRFRPPRLPRPRPRPLWYPRP | -0.721
RRIRFRPPRLPRPRPRPLYRPRP | -0.702
RRIRFRPPRLPRPRPRPLYTPRP | -0.58

Sequence | shrunken log2 fold change
RRIRFRPPRLPRPRPRPMAIPRP | -0.226
RRIRFRPPRLPRPRPRPMEGPRP | -0.0345
RRIRFRPPRLPRPRPRPMGPPRP | -0.238
RRIRFRPPRLPRPRPRPMHRPRP | -0.0791
RRIRFRPPRLPRPRPRPMICPRP | -0.303
RRIRFRPPRLPRPRPRPMLIPRP | -0.217
RRIRFRPPRLPRPRPRPMLTPRP | -0.351
RRIRFRPPRLPRPRPRPMMKPRP | -0.0975
RRIRFRPPRLPRPRPRPMQDPRP | -0.0947
RRIRFRPPRLPRPRPRPMRDPRP | 0.109
RRIRFRPPRLPRPRPRPMTCPRP | -0.0088
RRIRFRPPRLPRPRPRPMTIPRP | -0.182
RRIRFRPPRLPRPRPRPMVIPRP | 0.023
RRIRFRPPRLPRPRPRPMVYPRP | -0.389
RRIRFRPPRLPRPRPRPMWFPRP | -0.0145
RRIRFRPPRLPRPRPRPNAEPRP | 0.67
RRIRFRPPRLPRPRPRPNATPRP | 0.0167
RRIRFRPPRLPRPRPRPNDRPRP | -0.108
RRIRFRPPRLPRPRPRPNEDPRP | 0.144
RRIRFRPPRLPRPRPRPNEIPRP | 0.232
RRIRFRPPRLPRPRPRPNGSPRP | 0.0396
RRIRFRPPRLPRPRPRPNGTPRP | -0.419
RRIRFRPPRLPRPRPRPNIPPRP | -0.67
RRIRFRPPRLPRPRPRPNIYPRP | -0.116
RRIRFRPPRLPRPRPRPNKAPRP | -0.268

Sequence | shrunken log2 fold change
RRIRFRPPRLPRPRPRPNKPPRP | -0.00705
RRIRFRPPRLPRPRPRPNLAPRP | -0.0885
RRIRFRPPRLPRPRPRPNLKPRP | -0.553
RRIRFRPPRLPRPRPRPNLPPRP | -0.454
RRIRFRPPRLPRPRPRPNMAPRP | -0.245
RRIRFRPPRLPRPRPRPNMHPRP | -0.377
RRIRFRPPRLPRPRPRPNMNPRP | -0.953
RRIRFRPPRLPRPRPRPNMQPRP | -0.846
RRIRFRPPRLPRPRPRPNNCPRP | -0.167
RRIRFRPPRLPRPRPRPNQLPRP | -1.2
RRIRFRPPRLPRPRPRPNQSPRP | -0.32
RRIRFRPPRLPRPRPRPNRMPRP | 0.0762
RRIRFRPPRLPRPRPRPNRSPRP | -0.299
RRIRFRPPRLPRPRPRPNRTPRP | -0.0619
RRIRFRPPRLPRPRPRPNSRPRP | -0.0396
RRIRFRPPRLPRPRPRPNTCPRP | -0.483
RRIRFRPPRLPRPRPRPNVHPRP | -0.339
RRIRFRPPRLPRPRPRPPCHPRP | -0.0556
RRIRFRPPRLPRPRPRPPDNPRP | -0.115
RRIRFRPPRLPRPRPRPPDTPRP | 0.254
RRIRFRPPRLPRPRPRPPEFPRP | 0.12
RRIRFRPPRLPRPRPRPPEIPRP | -0.204
RRIRFRPPRLPRPRPRPPFDPRP | 0.188
RRIRFRPPRLPRPRPRPPFKPRP | -0.183
RRIRFRPPRLPRPRPRPPFTPRP | 0.0652

Sequence | shrunken log2 fold change
RRIRFRPPRLPRPRPRPPFVPRP | -0.0145
RRIRFRPPRLPRPRPRPPGAPRP | 0.847
RRIRFRPPRLPRPRPRPPGRPRP | 0.637
RRIRFRPPRLPRPRPRPPHKPRP | -0.027
RRIRFRPPRLPRPRPRPPHTPRP | 0.126
RRIRFRPPRLPRPRPRPPITPRP | -0.389
RRIRFRPPRLPRPRPRPPLDPRP | 0.461
RRIRFRPPRLPRPRPRPPLSPRP | 0.133
RRIRFRPPRLPRPRPRPPMDPRP | -0.155
RRIRFRPPRLPRPRPRPPMPPRP | 0.568
RRIRFRPPRLPRPRPRPPMQPRP | 0.115
RRIRFRPPRLPRPRPRPPMSPRP | 0.0816
RRIRFRPPRLPRPRPRPPNAPRP | 0.353
RRIRFRPPRLPRPRPRPPNCPRP | -0.159
RRIRFRPPRLPRPRPRPPNHPRP | -0.0407
RRIRFRPPRLPRPRPRPPNPPRP | 0.412
RRIRFRPPRLPRPRPRPPNVPRP | 0.0696
RRIRFRPPRLPRPRPRPPPAPRP | 1.49
RRIRFRPPRLPRPRPRPPPQPRP | 1.33
RRIRFRPPRLPRPRPRPPRDPRP | 1
RRIRFRPPRLPRPRPRPPRFPRP | 0.454
RRIRFRPPRLPRPRPRPPRKPRP | 0.827
RRIRFRPPRLPRPRPRPPRQPRP | 0.828
RRIRFRPPRLPRPRPRPPRRPRP | 0.826
RRIRFRPPRLPRPRPRPPSFPRP | -0.259
